The test deals with Human SARS-CoV-2_Wuhan S (SmT1), C-terminally fused to the resistin trimerization domain (SARS-CoV-2 (Wuhan-Hu-1) | not stated). The test is described as follows: SPR.

Among the data in article PMC9461429 are Kd values, retold here.

Chain of Human ACE2 (aa18-615), His6-tagged monomeric ACE2 (Q9BYF1 18-615): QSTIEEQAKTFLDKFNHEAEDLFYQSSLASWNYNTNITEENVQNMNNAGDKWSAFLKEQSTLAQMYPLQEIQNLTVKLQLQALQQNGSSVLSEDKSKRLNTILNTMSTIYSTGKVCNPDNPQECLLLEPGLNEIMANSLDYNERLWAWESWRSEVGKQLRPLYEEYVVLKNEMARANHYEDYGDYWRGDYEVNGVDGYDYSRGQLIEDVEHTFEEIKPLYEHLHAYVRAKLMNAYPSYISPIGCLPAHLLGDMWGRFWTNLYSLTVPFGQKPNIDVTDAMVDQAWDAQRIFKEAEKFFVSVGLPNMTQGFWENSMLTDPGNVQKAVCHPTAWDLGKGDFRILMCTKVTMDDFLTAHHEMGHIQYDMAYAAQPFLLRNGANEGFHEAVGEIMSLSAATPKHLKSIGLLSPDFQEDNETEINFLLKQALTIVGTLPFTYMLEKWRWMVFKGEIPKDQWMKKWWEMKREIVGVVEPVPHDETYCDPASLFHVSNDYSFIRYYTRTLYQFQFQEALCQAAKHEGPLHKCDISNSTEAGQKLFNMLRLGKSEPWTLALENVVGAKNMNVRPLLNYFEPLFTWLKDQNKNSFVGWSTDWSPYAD

Consider “Human ACE2 (aa18-615), His6-tagged monomeric ACE2 (from UniProt Q9BYF1-1 18-615) (receptor)”, for which the equilibrium dissociation constant (Kd) was found to be 165 nM.
